From the DeepSol protein solubility set

Experiment: soluble on expression in E. coli; label from the status in PepcDB or PDB records

| Sequence | soluble on expression in E. coli |
| --- | --- |
| MRPMALPAWREVALPHEDIRRGRFDESTFAADLADVLAGRGPLEYRDPLTFFRKTYPTKGMVRLLGAVVRRLSGEKGGEPVVQIQTPFGGGKTHGLVALYHLFRSGEEARGTELYARVLEEAGVERIPEAKVAVFVGTAADPLKGRTPWGELALQLGHYGLLEEHDKARQAPGKERLYELFRAAGGPVLILMDEVAEYVARTVDPTALHKEGGSLEGGRAYQTQVLAFFQELTEAVKVAPQVALVMTIPSSAPYGEEGERALLQLQRIAGRLEAIYEPVKGWEIYDVIRTRLFEGIRDEGVVRKVAERYFELYRRLGTEVPDEARDPAYRERMRRAYPFHPELIDALYERWGTLSTFQRTRGVLRFLAEIVADLYGREHSAPLIHSAHVNLANPSIRRELVKHIGNEFDSVIAADIADPEGQAKAQRLDREMGSEYVRFQVASGLATAIFLYSFSGGERKGASPAQLRLAALRPEVPPPLVGDALGRLRELLWYLHEASGLYYFSSQPNLNRIVVERENAVDPEQIRQALRERLERIAGRELRVYLEPHSPQDVPDTKELKLAVLSEPSGSLAEELLEKAGTTFRTYKNTLFLLSPDPNSLGDLHRAARRYLALRSIREDRTLYGQLSAENRHRLDELLREADGALTQKLFMAYRRLTKPGRQGPETYDMGIPTVGEASTLAKRVYEYLKAREFLLERIAPRHLLSALAQGETGKPLQEVYEAFLRYPHLPVLKGWEVLEEAVRKGVAEGTFGLRVGERYYFQEPVLGIAWEEAFLVRKEALPPERESVVDGEKKGEASSEGVAPKPDSSEEEVPPDSSGGEARPERVQEYTVKVRLPWNRLSDFLRGVLMPLQREGAEMELQIELRARSQEGIPRATLDKIRETLDQLQAKVEEA | soluble |
| MRPVLLLCCLFLSATAQAEDCSPQTSVGSWCELPLAALHPTQQNVGLLQVEDDQAKLAGKKPKALERYLRKKEIPVVIGPGGRFYLTDRHHLSSALWRLDPKQGVPVKVIGRLPQASDFWEKMQENHWVWLHDARGAEIPPEALPDALAGLGDDPYRALAGYAEDENAFDKDRQSYFIEFHWARYFGERMHWRPISRATLPDDLKQALRLACEPAARELPGYRQDCPH | soluble |
| MRRAGLGEGVPPGNYGNYGYANSGYSACEEENERLTESLRSKVTAIKSLSIEIGHEVKTQNKLLAEMDSQFDSTTGFLGLCPM | soluble |
| MRRICKDERRIQSVNSSEEIAVSGMSAGRSAMRMGPAELVQAAAMARRFYLEGKSKIQIAEEFGVSRFKVARVLETALERDLVRIEIRVPAELDAERSDALRARYGLRHAVVVESPADAEETPDPENLGEVAADLLGELVNEGDVLGLAWGRSTIHMAAALDRLPPCTVVQLTGVYDAGTAERGSVEAVRRAAQVSGGDAHPIYAPMLLPDAATAQALRHQTGIARAFEYFDKVTVACVSIGSWEPGISTVHDMLSDEERAHYASLGVAAEMSAHLFDAEGRRVGRDLGERCITVKADQLRRIPEVVAIAGGQRKAAAIDAVLRSGLVTSLVTDTSAADYLMTVGSAPKSTLNRTDPDGI | not soluble |
| MRRILSVLLENESGALSRVVGLFSQRAFNIESLTVAPTDDPTLSRMTIEAVGDAQALEQIEKQLHKLVDVFKVVNLSEQEHIEREIVLAKVRAVGSSRDEIKRLADIFRGQIVDVTPKSYTIQLSGTNDKVDAFISALKEETTLLEIVRSGLISVSRGEKNILLEHHHHHH | not soluble |
| MRRLGKQEIEDIAVGAALLGTGGGGDPYIGKLMALQAIEEYGPIQLLSVDEIDDEAVVVPSGMMGAPTVMIEKVPNGEEAIAAFQTLEQYLGKKIFATMPIEAGGINSLLPLALAARLGLPVVDVDGMGRAFPELQMVTFYLDGISATPLVIADEKGNHSVLNTVNNMWAERIARAATIQMGGSVMMAIYPMVGKQLKESGIHHILKLEEDIGRIIREAKGTNANPIAEVLSLVGGFELFKGKVVDINRKTESGFARGTAHIQGFDLYHDQTLEIKFQNEHLLAKTPDQLLCVTPDLIAILDSETGLPITTEGLKYGARCVVIGIPCHPKWRTAKGIETCGPAYFGYDVDYVPVENLVKEGAQTKLEHHHHHH | soluble |
| MRRNKRERQELLQQTIQATPFITDEELAGKFGVSIQTIRLDRLELSIPELRERIKNVAEKTLEDEVKSLSLDEVIGEIIDLELDDQAISILEIKQEHVFSRNQIARGHHLFAQANSLAVAVIDDELALTASADIRFTRQVKQGERVVAKAKVTAVEKEKGRTVVEVNSYVGEEIVFSGRFDMYRSKHSLEHHHHHH | soluble |
| MRSGQMEIIIGWLYPQLMSTYGDRGNVIIIERRAQWREYNVTVLPLDQNSTPDDLKSVDVIVGGGAQDRQQEIVMRDLQGAKADAMREKIENGTPGVFTCGSPQLLGHYYEPGFGQRIEGLGILDLVSIHPGENTKRCIGNLVIEVTASRFAQELEAMTGTKPYLVGFENHGGRTKLGKVEALGRVVYGLGNNGEDGTEGAFYQNAIATYSHGPLLPKNPFVADWLIQTALRLKYQEEIQLSPLNDTLAMQGREAMFKRLKVNLPLAGRI | not soluble |
| MRTLAIDIGGTKIALAIVEEGTIIQRYQIATPVVQDVTKFVQAILEKVTEWLPSIDYVGVSTTGYVTPEGITSINPETLNFPVPFPLAQTLEQLTNKPVSILNDAQAAAWFEFVQLKNPSLNMAFITVSTGVGGGIIIDGKLHKGNSGLAGHIGHMSVAIEGPLCGCGQRGCVESMASGNAIQKESEATFTETMSNVELFKQAAFNPKAEAIINRSVQAVATLCCNLKACLDLDIIVLGGGIGLAEGYLERLNKAIQSRPSVFHIPVTPAHGDYDACLLGAAFQFKE | not soluble |
| MRTLFLELMEQYVVAKNPKLMLRRSETVVERMLSNWMSICLYQYLKDSAGEPLYKLFKAIKHQVEKGPVDAVQKKAKYTLNDTGLLGDDVEYAPLTVSVIVQDEGIDAIPVKVLNCDTISQVKEKIIDQVYRTQPCSCWPKPDSVVLEWRPGSTAQILSDLDLTSQREGRWKRINTLMHYNVRDGATLILSKVGVSQQPEDSQQDLPGERHALLEEENRVWHLVRPTDEVDEGKSKRGSMKEKERTKAITEIYLTRLLSVKGTLQQFVDNFFQSVLAPGHAVPPAVKYFFDFLDEQAEKHDIRDEDTIHIWKTNSLPLRFWVNILKNPHFIFDVHVHEVVDASLSVIAQTFMDACTRTEHKLSRDSPSNKLLYAKEISTYKKMVEDYYKGIRQMVQVSDQDMNTHLAEISRAHTDSLNTLVALHQLYQYTQKYYDEIINALEEDPAAQKMQLAFRLQQIAAALENKVTDL | not soluble |
| MRTLLLAGGLLVLSGCSLLMPTPDPNRAWVDLDTQPDADLAAVEVDDKSWDRTRYFEVDPGTRELTVRYQFTVDPTNIGPVDSPLWRDCQLNLKFKDFSAGQRYRLEAGHIGFRPWAKLYDQDNRELARGREGRCAKV | not soluble |
| MRTRIDYLADKYCFTERNESPRLRRQWQDVLEECRQTEAGPEERLRIALLNVDYVTSFELPFRLLLTRTPQLIAALREEWGISQKNVVFNDKRFGCVYSLKASLSGVPDTYRYHLSHRIRRVVGNENTSLPYQQVAREVKAPRERLKYALEAGLLVTALDGLFRFGSQRIAADVLRLRKAGMPVVTTTVEVHDNLTGTTRKVPAYHL | not soluble |
| MRTVIFDLDGTLADTSGDLLAAANHCFRDMGLGDVLVPGQDAGIALRGGRMMLTRGLERVGAYDAATVERYYPVLLEAYRGAIDHHSFLYPGAMDAVEELRRAGYGVGICTNKPEALADLLLQRLGVRDAFAALIGADTLPVRKPDPEPLRAAARAAGGDPAACVLVGDSDTDRNTARAAGVPSILVTFGPSGDDMAALEPEALLERFEDLPHVVTRLIG | not soluble |
| MRVAVVGATGAVGREILKVLEARNFPLSELRLYASPRSAGVRLAFRGEEIPVEPLPEGPLPVDLVLASAGGGISRAKALVWAEGGALVVDNSSAWRYEPWVPLVVPEVNREKIFQHRGIIANPNCTTAILAMALWPLHRAFQAKRVIVATYQAASGAGAKAMEELLTETHRFLHGEAPKAEAFAHPLPFNVIPHIDAFQENGYTREEMKVVWETHKIFGDDTIRISATAVRVPTLRAHAEAVSVEFARPVTPEAAREVLKEAPGVEVVDEPEAKRYPMPLTASGKWDVEVGRIRKSLAFENGLDFFVVGDQLLKGAALNAVQIAEEWLKGA | soluble |
| MRVIKIQTKGDVRISYAIETIRINEWTKAIAEVIFEKDGVPEWEIEAVSRMSSDYVGSLGSEFEILDVSIDRRTNSYKIKGKYEGFYLAGTPIEAIEKDIVESVLSLRFESLDVYEVNIEDPFEDYDPSEYWELMDWEELEHHHHHH | not soluble |
| MRVMAFVQARMGSTRLPGKSLMPVWNGMGVLEMTLRRALRARTLSGVVLCTSTDPACDALETLASGLGVQAFRGPEDDVLTRYALATERFEPDAVVRICADSPLVCPEGIDALVAFFRDEGLDYAAHAMDGTGLPDGLGCEVFTAAALAQAHAEATAPEDREHVSLFIRHRPERFRQATLAADAALRAPGVSLDVDTQDDLDALRRFIMALPPSEGPFWSADAIAPLARGLHTPPQGTSMDIASDDYHDFFIRDGKLIGEFEQMYRKSRHAPWHQDEACDKWFNKVSAALVGHALDDPSVRTVFEVGSGLGYFLSQFAGEGRTLTGTDVSATAVEKARALFPGISFEVDDIRFEGRRGPYDLCLMQAVCWCIFPHMDDVVRNVTATVRPGGYLFLGECFQPLDGPFAGKDVIPTPDALIGHFSHAFDTVADVRVTRGEMGGGPIIYWLGRRRGLEHHHHHH | soluble |
| MRVSGSASSQDIISRINSKNINNNDSNEVKRIKDALCIESKERILYPQNLSRDNLKQMARYVNNTYVHYSGNCVLLSACLHYNIHHRQDILSSKNTASPTVGLDSAIVDKIIFGHELNQSYCLNSIDEVEKEILNRYDIKRESSFIISAENYIAPIIGECRHDFNAVVICEYDKKPYVQFIDSWKTSNILPSLQEIKKHFSSSGEFYVRAYDEKHD | not soluble |
| MRWNICVVGAGKIGQMIAALLKTSSNYSVTVADHDLAALAVLNRMGVATKQVDAKDEAGLAKALGGFDAVISAAPFFLTPIIAKAAKAAGAHYFDLTEDVAATNAVRALAEDSQTAFMPQCGLAPGFVGIAGAALAAEFDEIDSLHMRVGALPLYPTNALKYNLTWSTDG | not soluble |
| MRYFALTDLTKPTAKFTTDAMELRQISNAYLNQAQAYLQKGLKQLKKDYKNAILYTPKTEYKRFLKWKQTFLQDLNQTQKRFFIVRAQHFSYVLLFNLLDEQVEAVIATFNNFLDEHRLEAQSKQFDLDTAVNELHDYFDQLQKNTAYSEDLPTHLTQKTEQLINARNTQLTNLLNKIATTKPPLNKQQRLLASFRNYHEHLFLKNEVKKVTWLNEPRAKKESVTPDEEH | soluble |
| MRYFINIYVFRIKKILVLSVVNHISMDNPFSKFTNSRTIQADLSLLEENYIPDSFPHREKQINDMVTILSSIMRNSRPSNIIVYGKTGTGKTSTTKYVTRMLQEATSNVEVIYVNCEIYDSPYSILVYVANFAGGEKIPELGWPVDRIYREAVDRINGTGKFFVIVLDEMDRLIKKSGGDSLYVLLKLMTDVENVKVSMIGITNDTTLLENLDSRIKSRLNQESIVFPPYNATEIRDIIASRLEKVFGPGVVDDTAINLCAAIGAQEHGDARKAIDLMRIAIEIAIRENRLKVTEKEVYEARDKYEMNVMHEAINTLPIHSKIVLLSAIVTQEIEPNSVITGEIYENYRRICEDLGFTPLTPRRISDLLTELSDYGLIVVDERNMGKYGRTRGFSVVKEIETIKKYLMEDENLSMFKTSKMTKQARFDS | not soluble |
| MRYKKTLMLSIMITSFNSFAFNDNYSSTSTVYATSNEATDSRGSEHLRYPYLECIKIGMSRDYLENCVKVSFPTSQDMFYDAYPSTESDGAKTRTKEDFSARLLAGDYDSLQKLYIDFYLAQTTFDWEIPTRDQIETLVNYANEGKLSTALNQEYITGRFLTKENGRYDIVNVGGVPDNTPVKLPAIVSKRGLMGTTSVVNAIPNEIYPHIKVYEGTLSRLKPGGAMIAVLEYDVSELSKHGYTNLWDVQFKVLVGVPHAETGVIYDPVYEETVKPYQPSGNLTGKKLYNVSTNDMHNGYKWSNTMFSNSNYKTQILLTKGDGSGVKLYSKAYSENFK | not soluble |
